Like-named read-outs stand apart in the source and are kept apart here.

Assay [1] has as its target Variant 1051 (control; L234A/L235A on both heavy chains) (human). As to the kind of experiment: SPR; ProteOn XPR36, 25 °C; 10 mM HEPES, 150 mM NaCl, 3.4 mM EDTA, 0.05% Tween 20, pH 7.4; trastuzumab variants captured (approx. 500 RU) on amine-coupled recombinant HER-2 (GLM chip); FcγRs injected as analyte, five concentrations in 3-fold dilution; Equilibrium Fit model, mean of two or three runs. (Surface plasmon resonance follows binding to a sensor surface in real time, without labels.)

For assay [2], the target named is Variant 791 (trastuzumab with heterodimerising CH3 mutations only, no CH2 mutations) (human). The description is as above.
Assay [3] addresses Control Rituximab v1261 (anti-CD20 rituximab with heterodimerising CH3 mutations, no CH2 mutations) (human). The assay can be described thus: SPR; ProteOn XPR36, 25 °C; 10 mM HEPES, 150 mM NaCl, 3.4 mM EDTA, 0.05% Tween 20, pH 7.4; rituximab variants captured on amine-coupled goat anti-human Fc; FcγRs injected as analyte, five concentrations in 3-fold dilution; Equilibrium Fit model; ratios against homodimeric trastuzumab WT.

Assay [4] has the same target. The assay is described as above. This is another data set of the same source.
For assay [5], the target named is Variant 1051 (control; L234A/L235A on both heavy chains) (human). The assay can be described thus: SPR; ProteOn XPR36, 25 °C; 10 mM HEPES, 150 mM NaCl, 3.4 mM EDTA, 0.05% Tween 20, pH 7.4; trastuzumab variants captured (approx. 500 RU) on amine-coupled recombinant HER-2 (GLM chip); FcγRs injected as analyte, five concentrations in 3-fold dilution; Equilibrium Fit model, mean of two or three runs. This is another data set of the same source.

Assay [6] has as its target Variant 791 (trastuzumab with heterodimerising CH3 mutations only, no CH2 mutations) (human). The description is as above. The source holds these as a separate data set.

Chain of Control Rituximab v1261 (anti-CD20 rituximab with heterodimerising CH3 mutations, no CH2 mutations) (human) (heavy, as listed by the source, chain 1 of 2): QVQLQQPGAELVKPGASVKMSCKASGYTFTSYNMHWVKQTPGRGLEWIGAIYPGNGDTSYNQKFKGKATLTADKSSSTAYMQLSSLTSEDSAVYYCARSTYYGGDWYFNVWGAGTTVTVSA
Chain of Control Rituximab v1261 (anti-CD20 rituximab with heterodimerising CH3 mutations, no CH2 mutations) (human) (light, as listed by the source, chain 2 of 2): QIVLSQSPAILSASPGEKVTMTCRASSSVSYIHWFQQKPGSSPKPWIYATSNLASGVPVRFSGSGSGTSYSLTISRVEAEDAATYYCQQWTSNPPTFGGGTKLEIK

With “FcγR 1a (CD64) (from UniProt P12314 16-374) (receptor)”, the Kamut/KaWT (WT: homodimeric trastuzumab) in assay [1] worked out at 0.01.
Take “FcγR 2aH (from UniProt P12318 34-317) (receptor)”: the Kamut/KaWT (WT: homodimeric trastuzumab) in assay [2] was found to be 1.7; in assay [1] it was 0.06; in assay [3], 1.9.
Consider “FcγR 2b (from UniProt P31994 43-310) (receptor)”, for which the Kamut/KaWT (WT: homodimeric trastuzumab) in assay [1] was 0.52; in assay [3], 1.9.
For the molecule “FcγR 3aF (from UniProt P08637 17-254) (receptor)”, the Kamut/KaWT (WT: homodimeric trastuzumab) in assay [1] amounted to 0.29; in assay [3], 1.4.

B1: FcγR 2aR, P12318 34-317 (receptor)
chain: QAAAPPKAVLKLEPPWINVLQEDSVTLTCQGARSPESDSIQWFHNGNLIPTHTQPSYRFKANNNDSGEYTCQTGQTSLSDPVHLTVLSEWLVLQTPHLEFQEGETIMLRCHSWKDKPLVKVTFFQNGKSQKFSRLDPTFSIPQANHSHSGDYHCTGNIGYTLFSSKPVTITVQVPSMGSSSPMG
modifications: not checked
Consider B1, for which the Kamut/KaWT (WT: homodimeric trastuzumab) came out at 1.5 in assay [4], 0.06 in assay [5] and 1.7 in assay [6].

Source of the values: publication PMC6698841.
